T1: Human PTK7 Protein, His Tag, Acro Biosystems (human, UniProt Q13308 31-704)
T1 construct: Bought protein; also called CCK4; not shown: His tag
T1 sequence: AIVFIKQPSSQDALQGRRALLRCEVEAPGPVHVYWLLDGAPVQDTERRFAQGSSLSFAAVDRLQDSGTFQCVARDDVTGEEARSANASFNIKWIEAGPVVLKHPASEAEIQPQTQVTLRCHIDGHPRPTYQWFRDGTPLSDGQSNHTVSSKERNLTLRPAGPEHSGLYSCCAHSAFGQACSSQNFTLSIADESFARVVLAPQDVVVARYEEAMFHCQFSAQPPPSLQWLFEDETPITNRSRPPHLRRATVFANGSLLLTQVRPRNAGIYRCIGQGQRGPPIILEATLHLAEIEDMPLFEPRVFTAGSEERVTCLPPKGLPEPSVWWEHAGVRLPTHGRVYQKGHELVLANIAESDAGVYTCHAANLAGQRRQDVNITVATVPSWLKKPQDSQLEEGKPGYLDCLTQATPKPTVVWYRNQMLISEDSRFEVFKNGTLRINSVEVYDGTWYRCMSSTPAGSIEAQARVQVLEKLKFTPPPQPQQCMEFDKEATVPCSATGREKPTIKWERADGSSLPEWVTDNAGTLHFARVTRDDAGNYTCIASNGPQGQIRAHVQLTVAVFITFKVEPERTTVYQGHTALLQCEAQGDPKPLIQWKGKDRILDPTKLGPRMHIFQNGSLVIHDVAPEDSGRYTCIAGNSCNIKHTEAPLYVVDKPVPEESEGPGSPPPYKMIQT

B1: MYT11182 (antibody, V domains shown)
VH: EVQLVESGGGLVQPGGSLRLSCTASGIHLSSYVMGWVRQAPGKGLEWVGYIYGGGGTYYATWARGRFTISRDTSKNTVYLQMNSLRAEDTAVYFCARAAADFYFNLWGQGTLVTVSS
VL: EIVMTQSPSTLSASVGDRVIITCQASQSISSYLAWYQQKPGKAPKLLIYDISDLASGVPSRFSGSGSGAEFTLTISSLQPDDFATYYCQSYYWISNSGAAFGQGTKLTVL
notes: HC variant of MYT9460, sub at HCV pos 28 (H1 03)
B2: MYT11180 (antibody, V domains shown)
VH: EVQLVESGGGLVQPGGSLRLSCTASHIDLSSYVMGWVRQAPGKGLEWVGYIYGGGGTYYATWARGRFTISRDTSKNTVYLQMNSLRAEDTAVYFCARAAADFYFNLWGQGTLVTVSS
VL: EIVMTQSPSTLSASVGDRVIITCQASQSISSYLAWYQQKPGKAPKLLIYDISDLASGVPSRFSGSGSGAEFTLTISSLQPDDFATYYCQSYYWISNSGAAFGQGTKLTVL
notes: HC variant of MYT9460, sub at HCV pos 26 (H1 01)
B3: MYT11184 (antibody, V domains shown)
VH: EVQLVESGGGLVQPGGSLRLSCTASGIDLHSYVMGWVRQAPGKGLEWVGYIYGGGGTYYATWARGRFTISRDTSKNTVYLQMNSLRAEDTAVYFCARAAADFYFNLWGQGTLVTVSS
VL: EIVMTQSPSTLSASVGDRVIITCQASQSISSYLAWYQQKPGKAPKLLIYDISDLASGVPSRFSGSGSGAEFTLTISSLQPDDFATYYCQSYYWISNSGAAFGQGTKLTVL
notes: HC variant of MYT9460, sub at HCV pos 30 (H1 05)
B4: MYT11192 (antibody, V domains shown)
VH: EVQLVESGGGLVQPGGSLRLSCTASGIDLSSYVMGWVRQAPGKGLEWVGYIHGGGGTYYATWARGRFTISRDTSKNTVYLQMNSLRAEDTAVYFCARAAADFYFNLWGQGTLVTVSS
VL: EIVMTQSPSTLSASVGDRVIITCQASQSISSYLAWYQQKPGKAPKLLIYDISDLASGVPSRFSGSGSGAEFTLTISSLQPDDFATYYCQSYYWISNSGAAFGQGTKLTVL
notes: HC variant of MYT9460, sub at HCV pos 52 (H2 03)
B5: MYT11193 (antibody, V domains shown)
VH: EVQLVESGGGLVQPGGSLRLSCTASGIDLSSYVMGWVRQAPGKGLEWVGYIYHGGGTYYATWARGRFTISRDTSKNTVYLQMNSLRAEDTAVYFCARAAADFYFNLWGQGTLVTVSS
VL: EIVMTQSPSTLSASVGDRVIITCQASQSISSYLAWYQQKPGKAPKLLIYDISDLASGVPSRFSGSGSGAEFTLTISSLQPDDFATYYCQSYYWISNSGAAFGQGTKLTVL
notes: HC variant of MYT9460, sub at HCV pos 53 (H2 04)
B6: MYT11194 (antibody, V domains shown)
VH: EVQLVESGGGLVQPGGSLRLSCTASGIDLSSYVMGWVRQAPGKGLEWVGYIYGHGGTYYATWARGRFTISRDTSKNTVYLQMNSLRAEDTAVYFCARAAADFYFNLWGQGTLVTVSS
VL: EIVMTQSPSTLSASVGDRVIITCQASQSISSYLAWYQQKPGKAPKLLIYDISDLASGVPSRFSGSGSGAEFTLTISSLQPDDFATYYCQSYYWISNSGAAFGQGTKLTVL
notes: HC variant of MYT9460, sub at HCV pos 54 (H2 05)
B7: MYT11195 (antibody, V domains shown)
VH: EVQLVESGGGLVQPGGSLRLSCTASGIDLSSYVMGWVRQAPGKGLEWVGYIYGGHGTYYATWARGRFTISRDTSKNTVYLQMNSLRAEDTAVYFCARAAADFYFNLWGQGTLVTVSS
VL: EIVMTQSPSTLSASVGDRVIITCQASQSISSYLAWYQQKPGKAPKLLIYDISDLASGVPSRFSGSGSGAEFTLTISSLQPDDFATYYCQSYYWISNSGAAFGQGTKLTVL
notes: HC variant of MYT9460, sub at HCV pos 55 (H2 06)
B8: MYT11196 (antibody, V domains shown)
VH: EVQLVESGGGLVQPGGSLRLSCTASGIDLSSYVMGWVRQAPGKGLEWVGYIYGGGHTYYATWARGRFTISRDTSKNTVYLQMNSLRAEDTAVYFCARAAADFYFNLWGQGTLVTVSS
VL: EIVMTQSPSTLSASVGDRVIITCQASQSISSYLAWYQQKPGKAPKLLIYDISDLASGVPSRFSGSGSGAEFTLTISSLQPDDFATYYCQSYYWISNSGAAFGQGTKLTVL
notes: HC variant of MYT9460, sub at HCV pos 56 (H2 07)

molecular target: T1, Human PTK7 Protein, His Tag, Acro …; experiment: BLI (Octet), antibody on anti-human Fc sensor, 50 nM PTK7, dissociation at pH 7.4 or 5.4; 1 = pH dependent binding relative to parent

Binder | binding result
B1 | binds
B2 | binds
B3 | binds
B4 | binds
B5 | binds
B6 | binds
B7 | binds
B8 | binds
